Measured values published in US20180155413A1 (AstraZeneca / MedImmune, published 2018).

Assays:
Assay in all cases: cell-based or functional assay
[1] = biological target: HA of ca B/Johannesburg/5/99 (yamagata) (influenza B virus)
[2] = biological target: HA of ca B/Ann Arbor/2/94 (yamagata) (influenza B virus)
[3] = biological target: HA of B/Ohio/1/2005 (victoria) (influenza B virus)
[4] = biological target: HA of B/Shanghai/361/02 (yamagata) (influenza B virus)
[5] = biological target: T1, HA of B/Lee/40 (influenza B virus, UniProt P03460 16-584)
[6] = biological target: HA of ca B/Ann Arbor/1/66 (influenza B virus)
[7] = biological target: HA of ca B/Georgia/02/98 (yamagata) (influenza B virus)
[8] = biological target: HA of B/Hong Kong/330/2001 (victoria) (influenza B virus)
[9] = biological target: HA of B/Yamagata/16/88 (yamagata) (influenza B virus)
[10] = biological target: HA of ca B/Beijing/243/97 (victoria) (influenza B virus)
[11] = biological target: HA of B/Florida/4/2006 (yamagata) (influenza B virus)
[12] = biological target: HA of B/Sichuan/379/99 (yamagata) (influenza B virus)
[13] = biological target: HA of B/Malaysia/2506/2004 (victoria) (influenza B virus)
[14] = biological target: HA of ca B/Brisbane/60/2008 (victoria) (influenza B virus)
[15] = biological target: HA of B/Hong Kong/5/72 (influenza B virus)
[16] = biological target: HA of ca B/Victoria/504/2000 (yamagata) (influenza B virus)
[17] = biological target: HA of B/Yamanashi/166/98 (yamagata) (influenza B virus)
[18] = biological target: T1, HA of B/Lee/40; remark: listed apart in the source
[19] = biological target: HA of ca B/Georgia/02/98 (yamagata) (influenza B virus); remark: listed apart in the source
[20] = biological target: HA of A/Switzerland/9715293/2013 (H3N2) (influenza A virus)
[21] = biological target: HA of B/Wisconsin/1/2010 (yamagata) (influenza B virus)
[22] = biological target: HA of B/Wisconsin/5/2013 (victoria) (influenza B virus)
[23] = biological target: HA of B/Yamagata/16/88 (yamagata) (influenza B virus); remark: listed apart in the source
[24] = biological target: HA of A/Bolivia/559/2013 (H1N1) (influenza A virus)
[25] = biological target: HA of B/Arizona/8/2013 (yamagata) (influenza B virus)
[26] = biological target: HA of A/Washington/24/2012 (H1N1) (influenza A virus)
[27] = biological target: HA of B/Florida/4/2006 (yamagata) (influenza B virus); remark: listed apart in the source
[28] = biological target: HA of A/Hong Kong/2212/2010 (H1N1) (influenza A virus)
[29] = biological target: HA of A/Wilson Smith N/33 (H1N1) (influenza A virus, UniProt P03454 18-565)
[30] = biological target: HA of A/Brisbane/10/2010 (H1N1) (influenza A virus)
[31] = biological target: HA of B/Sichuan/379/99 (yamagata) (influenza B virus); remark: listed apart in the source
[32] = biological target: HA of B/Phuket/3073/2013 (yamagata) (influenza B virus)
[33] = biological target: HA of A/California/07/2009 (H1N1) (influenza A virus)
[34] = biological target: HA of B/Malaysia/2506/2004 (victoria) (influenza B virus); remark: listed apart in the source
[35] = biological target: HA of ca A/Perth/16/2009 (H3N2) (influenza A virus)
[36] = biological target: HA of ca B/Brisbane/60/2008 (victoria) (influenza B virus); remark: listed apart in the source
[37] = biological target: HA of B/Hong Kong/5/72 (influenza B virus); remark: listed apart in the source
[38] = biological target: HA of ca B/Victoria/504/2000 (yamagata) (influenza B virus); remark: listed apart in the source
[39] = biological target: HA of B/Nevada/3/2011 (victoria) (influenza B virus)
[40] = biological target: HA of B/Texas/2/2013 (victoria) (influenza B virus)
[41] = biological target: HA of B/Yamanashi/166/98 (yamagata) (influenza B virus); remark: listed apart in the source
[42] = biological target: HA protein derived from A/Hong Kong/8/68 H3N2, on stably transfected MDCK cells (influenza A virus)

T1 sequence (P03460 16-584 limits assumed): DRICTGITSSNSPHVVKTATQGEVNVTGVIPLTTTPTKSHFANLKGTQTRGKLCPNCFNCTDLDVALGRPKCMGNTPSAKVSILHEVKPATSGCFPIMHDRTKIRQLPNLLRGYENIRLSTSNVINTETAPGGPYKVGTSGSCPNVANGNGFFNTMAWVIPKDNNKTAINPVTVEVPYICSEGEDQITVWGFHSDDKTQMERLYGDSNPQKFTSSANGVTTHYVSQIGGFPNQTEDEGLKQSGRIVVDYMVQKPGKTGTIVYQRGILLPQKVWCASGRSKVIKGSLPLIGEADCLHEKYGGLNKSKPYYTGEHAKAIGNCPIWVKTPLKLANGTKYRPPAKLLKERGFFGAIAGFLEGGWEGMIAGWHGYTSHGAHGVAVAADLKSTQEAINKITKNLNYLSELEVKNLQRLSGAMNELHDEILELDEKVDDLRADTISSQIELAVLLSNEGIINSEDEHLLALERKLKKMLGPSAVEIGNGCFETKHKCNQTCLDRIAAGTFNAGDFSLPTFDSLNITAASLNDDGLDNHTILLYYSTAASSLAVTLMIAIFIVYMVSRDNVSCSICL
Sequence of HA of A/Wilson Smith N/33 (H1N1) (P03454 18-565 limits assumed): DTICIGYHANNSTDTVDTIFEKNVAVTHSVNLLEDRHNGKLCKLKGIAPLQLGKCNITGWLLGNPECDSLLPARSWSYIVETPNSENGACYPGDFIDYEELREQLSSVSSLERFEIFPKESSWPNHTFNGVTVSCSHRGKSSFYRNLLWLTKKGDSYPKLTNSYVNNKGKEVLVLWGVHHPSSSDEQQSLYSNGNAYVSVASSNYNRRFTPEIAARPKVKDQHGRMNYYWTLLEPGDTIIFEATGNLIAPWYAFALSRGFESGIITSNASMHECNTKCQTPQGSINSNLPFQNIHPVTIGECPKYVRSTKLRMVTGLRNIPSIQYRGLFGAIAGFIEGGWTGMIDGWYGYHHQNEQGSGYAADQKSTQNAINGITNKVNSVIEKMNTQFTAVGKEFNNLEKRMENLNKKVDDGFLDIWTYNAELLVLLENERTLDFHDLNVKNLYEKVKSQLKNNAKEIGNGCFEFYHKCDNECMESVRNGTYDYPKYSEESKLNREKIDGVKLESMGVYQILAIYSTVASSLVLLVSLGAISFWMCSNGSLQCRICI

B1: GL20/39 BiS4 100/44 (bispecific antibody)
light: DIQMTQSPSSLSASVGDRVTITCRTSQSLSSYTHWYQQKPGKAPKLLIYAASSRGSGVPSRFSGSGSGTDFTLTISSLQPEDFATYYCQQSRTFGQGTKVEIKRTVAAPSVFIFPPSDEQLKSGTASVVCLLNNFYPREAKVQWKVDNALQSGNSQESVTEQDSKDSTYSLSSTLTLSKADYEKHKVYACEVTHQGLSSPVTKSFNRGEC
heavy: not shown
- Hemagglutination Inhibition Titer [1]: 122 nM
- Hemagglutination Inhibition Titer [2]: 61 nM
- Hemagglutination Inhibition Titer [3]: 244 nM
- Hemagglutination Inhibition Titer [4]: 91 nM
- Hemagglutination Inhibition Titer [5]: 61 nM
- Hemagglutination Inhibition Titer [6]: 244 nM
- Hemagglutination Inhibition Titer [7]: 122 nM
- Hemagglutination Inhibition Titer [8]: 244 nM
- Hemagglutination Inhibition Titer [9]: 122 nM
- Hemagglutination Inhibition Titer [10]: 91 nM
- Hemagglutination Inhibition Titer [11]: 61 nM
- Hemagglutination Inhibition Titer [12]: 122 nM
- Hemagglutination Inhibition Titer [13]: 244 nM
- Hemagglutination Inhibition Titer [14]: 244 nM
- Hemagglutination Inhibition Titer [15]: 244 nM
- Hemagglutination Inhibition Titer [16]: 61 nM
- Hemagglutination Inhibition Titer [17]: 122 nM
- Neutralization (IC50) [18]: 1 nM
- Neutralization (IC50) [19]: 1 nM
- Neutralization (IC50) [20]: 0.9 nM
- Neutralization (IC50) [21]: 4.4 nM
- Neutralization (IC50) [22]: 14.5 nM
- Neutralization (IC50) [23]: 1.3 nM
- Neutralization (IC50) [24]: 0.9 nM
- Neutralization (IC50) [25]: 2.2 nM
- Neutralization (IC50) [26]: 2.1 nM
- Neutralization (IC50) [27]: 1.4 nM
- Neutralization (IC50) [28]: 0.4 nM
- Neutralization (IC50) [29]: 9.5 nM
- Neutralization (IC50) [30]: 9.8 nM
- Neutralization (IC50) [31]: 12.1 nM
- Neutralization (IC50) [32]: 15.4 nM
- Neutralization (IC50) [33]: 10.9 nM
- Neutralization (IC50) [34]: 33 nM
- Neutralization (IC50) [35]: 4 nM
- Neutralization (IC50) [36]: 51.8 nM
- Neutralization (IC50) [37]: 5.7 nM
- Neutralization (IC50) [38]: 1.3 nM
- Neutralization (IC50) [39]: 38.2 nM
- Neutralization (IC50) [40]: 13.8 nM
- Neutralization (IC50) [41]: 0.3 nM

B2: GL20 IgG (antibody, V domains shown)
VH: QVQLQQSGPGLVKPSQTLSLTCAISGDSVSSYNAVWNWIRQSPSRGLEWLGRTYYRSGWYNDYAESVKSRITINPDTSKNQFSLQLNSVTPEDTAVYYCARSGHITVFGVNVDAFDMWGQGTMVTVSS
VL: DIQMTQSPSSLSASVGDRVTITCRTSQSLSSYTHWYQQKPGKAPKLLIYAASSRGSGVPSRFSGSGSGTDFTLTISSLQPEDFATYYCQQSRTFGQGTKVEIK
- EC50 (read off the curve), ADCP % double positive [42]: ~0.04 nM
- Neutralization (IC50) [20]: 0.3 nM
- Neutralization (IC50) [24]: 0.9 nM
- Neutralization (IC50) [26]: 1.4 nM
- Neutralization (IC50) [29]: 7.6 nM
- Neutralization (IC50) [30]: 10.5 nM
- Neutralization (IC50) [33]: 10.2 nM
- Neutralization (IC50) [35]: 4.2 nM
